Measurements from article PMC5916898, “Global profiling of protein–DNA and protein–nucleosome binding affinities using quantitative mass spectrometry”.

Key:
TGIF1 = TGIF1 (Homo sapiens, UniProt Q15583); experiment: pulldown; 150 mM NaCl, 50 mM Tris pH 8, 0.25% NP-40, 1 mM TCEP; 4 C, 2 h; 100 ug HeLa nuclear lysate; conditions: protein: extract; label: 5' biotin (strand 1)
ELF2 = ELF2 (Homo sapiens, UniProt Q15723); experiment: as above; conditions: protein: extract; label: 5' biotin (strand 1)
BBX = target: T1, BBX (Homo sapiens, UniProt Q8WY36); experiment: as above; conditions: protein: extract; label: 5' biotin (strand 1)
T1 sequence: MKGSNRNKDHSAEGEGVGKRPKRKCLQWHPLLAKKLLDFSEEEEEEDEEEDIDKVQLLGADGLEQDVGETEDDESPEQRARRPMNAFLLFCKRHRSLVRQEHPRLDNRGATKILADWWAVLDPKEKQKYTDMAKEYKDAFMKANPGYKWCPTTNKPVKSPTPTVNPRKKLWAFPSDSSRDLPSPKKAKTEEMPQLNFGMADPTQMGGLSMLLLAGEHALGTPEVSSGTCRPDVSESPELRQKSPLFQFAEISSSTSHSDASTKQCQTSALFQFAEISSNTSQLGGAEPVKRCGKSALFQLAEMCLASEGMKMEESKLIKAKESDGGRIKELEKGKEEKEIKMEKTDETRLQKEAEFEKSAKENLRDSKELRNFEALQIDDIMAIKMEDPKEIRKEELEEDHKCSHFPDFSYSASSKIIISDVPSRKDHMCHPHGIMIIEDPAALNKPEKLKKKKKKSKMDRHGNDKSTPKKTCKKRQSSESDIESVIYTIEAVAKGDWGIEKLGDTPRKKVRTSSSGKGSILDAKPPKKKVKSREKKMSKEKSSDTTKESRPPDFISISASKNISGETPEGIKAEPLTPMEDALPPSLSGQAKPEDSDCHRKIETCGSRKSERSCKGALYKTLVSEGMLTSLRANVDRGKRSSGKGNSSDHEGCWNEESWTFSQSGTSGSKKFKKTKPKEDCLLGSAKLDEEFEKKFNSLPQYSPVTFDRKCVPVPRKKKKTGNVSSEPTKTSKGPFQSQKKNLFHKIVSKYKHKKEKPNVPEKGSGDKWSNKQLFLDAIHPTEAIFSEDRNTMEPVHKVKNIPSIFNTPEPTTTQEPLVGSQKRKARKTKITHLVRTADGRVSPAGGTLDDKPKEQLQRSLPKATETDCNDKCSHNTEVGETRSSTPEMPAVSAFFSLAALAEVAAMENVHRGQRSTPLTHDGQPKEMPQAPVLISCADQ

SIX2 = target: T2, SIX2 (Homo sapiens, UniProt Q9NPC8); experiment: as above; conditions: protein: extract; label: 5' biotin (strand 1)
T2 sequence: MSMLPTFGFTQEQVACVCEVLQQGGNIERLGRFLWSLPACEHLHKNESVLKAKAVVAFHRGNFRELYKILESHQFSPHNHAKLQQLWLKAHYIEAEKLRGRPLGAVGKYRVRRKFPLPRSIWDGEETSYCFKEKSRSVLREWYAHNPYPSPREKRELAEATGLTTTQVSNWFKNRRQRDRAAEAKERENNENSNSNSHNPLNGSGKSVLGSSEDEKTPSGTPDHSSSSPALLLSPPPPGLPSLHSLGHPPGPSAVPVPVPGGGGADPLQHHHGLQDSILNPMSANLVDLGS

RREB1 = RREB1 (Homo sapiens, UniProt Q92766); experiment: as above; conditions: protein: extract; label: 5' biotin (strand 1)
Sequence of RREB1 (Q92766 whole entry): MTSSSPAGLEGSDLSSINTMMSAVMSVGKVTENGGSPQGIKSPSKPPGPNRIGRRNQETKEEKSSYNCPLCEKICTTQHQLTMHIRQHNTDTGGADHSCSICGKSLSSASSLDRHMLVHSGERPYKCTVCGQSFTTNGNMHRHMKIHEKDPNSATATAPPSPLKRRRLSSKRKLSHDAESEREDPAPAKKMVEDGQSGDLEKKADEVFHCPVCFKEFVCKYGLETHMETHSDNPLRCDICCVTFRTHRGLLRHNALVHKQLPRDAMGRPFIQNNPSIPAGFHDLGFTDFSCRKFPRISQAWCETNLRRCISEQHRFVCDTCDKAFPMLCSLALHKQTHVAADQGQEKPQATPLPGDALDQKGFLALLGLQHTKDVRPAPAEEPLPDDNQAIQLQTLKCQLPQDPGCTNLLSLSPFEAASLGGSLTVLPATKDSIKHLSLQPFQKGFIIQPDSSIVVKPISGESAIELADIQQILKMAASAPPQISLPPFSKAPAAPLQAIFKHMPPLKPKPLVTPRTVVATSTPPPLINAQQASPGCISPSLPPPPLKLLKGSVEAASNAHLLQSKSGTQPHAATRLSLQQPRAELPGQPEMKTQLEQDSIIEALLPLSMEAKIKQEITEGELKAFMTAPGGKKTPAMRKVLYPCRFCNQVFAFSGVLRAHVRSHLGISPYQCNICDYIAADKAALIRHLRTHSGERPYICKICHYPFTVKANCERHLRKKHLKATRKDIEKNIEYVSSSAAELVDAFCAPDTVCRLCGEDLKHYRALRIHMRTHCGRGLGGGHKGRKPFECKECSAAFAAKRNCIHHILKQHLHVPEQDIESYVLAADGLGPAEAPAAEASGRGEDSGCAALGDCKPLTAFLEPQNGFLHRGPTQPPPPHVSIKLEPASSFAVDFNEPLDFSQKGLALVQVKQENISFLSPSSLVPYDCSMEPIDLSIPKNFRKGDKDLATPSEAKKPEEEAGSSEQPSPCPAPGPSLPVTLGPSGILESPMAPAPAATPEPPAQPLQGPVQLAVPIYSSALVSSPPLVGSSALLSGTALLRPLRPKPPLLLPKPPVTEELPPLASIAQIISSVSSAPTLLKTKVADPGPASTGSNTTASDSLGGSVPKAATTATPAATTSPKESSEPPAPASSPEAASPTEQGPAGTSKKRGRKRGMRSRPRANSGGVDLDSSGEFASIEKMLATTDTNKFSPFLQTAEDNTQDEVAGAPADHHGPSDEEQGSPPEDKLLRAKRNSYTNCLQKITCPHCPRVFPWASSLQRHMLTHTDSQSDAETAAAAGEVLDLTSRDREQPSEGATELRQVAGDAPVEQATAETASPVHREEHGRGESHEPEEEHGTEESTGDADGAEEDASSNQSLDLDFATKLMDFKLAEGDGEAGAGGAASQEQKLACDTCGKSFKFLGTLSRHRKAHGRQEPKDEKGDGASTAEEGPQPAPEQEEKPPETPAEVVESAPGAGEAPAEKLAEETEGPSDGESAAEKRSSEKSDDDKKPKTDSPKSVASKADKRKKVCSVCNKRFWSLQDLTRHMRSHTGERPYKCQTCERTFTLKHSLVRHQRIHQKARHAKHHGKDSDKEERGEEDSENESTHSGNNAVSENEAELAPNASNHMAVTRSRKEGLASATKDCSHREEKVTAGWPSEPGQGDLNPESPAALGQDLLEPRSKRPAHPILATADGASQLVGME

TFAP2A = TFAP2A (Homo sapiens, UniProt P05549); experiment: as above; conditions: protein: extract; label: 5' biotin (strand 1)
Sequence of TFAP2A (P05549 whole entry): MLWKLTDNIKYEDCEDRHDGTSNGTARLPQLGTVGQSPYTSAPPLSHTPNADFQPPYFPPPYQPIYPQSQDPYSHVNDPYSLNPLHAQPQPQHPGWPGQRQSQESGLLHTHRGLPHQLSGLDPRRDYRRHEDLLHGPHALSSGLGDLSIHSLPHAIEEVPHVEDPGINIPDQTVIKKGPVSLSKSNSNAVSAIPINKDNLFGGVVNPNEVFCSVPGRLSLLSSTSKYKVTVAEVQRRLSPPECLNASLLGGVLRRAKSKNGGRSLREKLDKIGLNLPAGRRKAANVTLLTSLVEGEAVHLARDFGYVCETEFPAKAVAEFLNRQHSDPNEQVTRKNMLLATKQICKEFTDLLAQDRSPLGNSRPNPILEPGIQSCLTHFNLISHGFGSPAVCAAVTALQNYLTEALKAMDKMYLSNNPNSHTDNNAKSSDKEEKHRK

VEZF1 = target: T3, VEZF1 (Homo sapiens, UniProt Q14119); experiment: as above; conditions: protein: extract; label: 5' biotin (strand 1)
T3 sequence: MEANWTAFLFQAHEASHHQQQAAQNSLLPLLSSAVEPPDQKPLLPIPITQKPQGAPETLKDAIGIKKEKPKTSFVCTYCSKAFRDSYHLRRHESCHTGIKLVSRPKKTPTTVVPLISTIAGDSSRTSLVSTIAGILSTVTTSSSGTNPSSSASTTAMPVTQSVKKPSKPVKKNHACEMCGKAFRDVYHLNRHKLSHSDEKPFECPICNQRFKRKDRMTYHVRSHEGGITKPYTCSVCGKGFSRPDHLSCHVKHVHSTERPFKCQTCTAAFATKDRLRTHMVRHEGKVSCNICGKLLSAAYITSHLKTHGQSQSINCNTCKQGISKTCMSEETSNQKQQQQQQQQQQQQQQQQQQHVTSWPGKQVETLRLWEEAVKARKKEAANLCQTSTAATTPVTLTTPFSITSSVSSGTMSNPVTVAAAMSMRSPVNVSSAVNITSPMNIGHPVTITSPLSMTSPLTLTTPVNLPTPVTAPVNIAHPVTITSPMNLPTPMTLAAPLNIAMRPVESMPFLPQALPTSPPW

SMARCB1-WHD = SMARCB1-WHD (UniProt Q12824 1-113); experiment: pull-down; Pull-down: 150 mM NaCl (or LiCl), 50 mM Tris pH 8, 0.25% NP-40, 1 mM TCEP, protease inhibitors, 4 C, 2 h; EMSA with lysate in same buffer, RT 15 min; FP in PBS, 25 C; conditions: protein: recombinant; label: 5' biotin; G4
Sequence of SMARCB1-WHD (Q12824 1-113): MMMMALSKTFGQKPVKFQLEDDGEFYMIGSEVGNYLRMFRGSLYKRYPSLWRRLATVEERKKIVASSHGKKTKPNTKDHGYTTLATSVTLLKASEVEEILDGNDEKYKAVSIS

PHF10-DPF = target: T4, PHF10-DPF (UniProt Q8WUB8 379-481); experiment: as above; conditions: protein: recombinant; tags: GST; label: 5' biotin; G4
T4 sequence: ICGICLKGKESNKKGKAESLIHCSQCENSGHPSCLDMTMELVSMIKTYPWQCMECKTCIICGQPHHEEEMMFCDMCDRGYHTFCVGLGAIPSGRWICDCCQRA

ZBTB7A = ZBTB7A (Homo sapiens, UniProt O95365); experiment: pulldown; 150 mM NaCl, 50 mM Tris pH 8, 0.25% NP-40, 1 mM TCEP; 4 C, 2 h; 100 ug HeLa nuclear lysate; conditions: protein: extract; label: 5' biotin (strand 1)
ZBTB7B = ZBTB7B (Homo sapiens, UniProt O15156); experiment: as above; conditions: protein: extract; label: 5' biotin (strand 1)
Sequence of ZBTB7B (O15156 whole entry): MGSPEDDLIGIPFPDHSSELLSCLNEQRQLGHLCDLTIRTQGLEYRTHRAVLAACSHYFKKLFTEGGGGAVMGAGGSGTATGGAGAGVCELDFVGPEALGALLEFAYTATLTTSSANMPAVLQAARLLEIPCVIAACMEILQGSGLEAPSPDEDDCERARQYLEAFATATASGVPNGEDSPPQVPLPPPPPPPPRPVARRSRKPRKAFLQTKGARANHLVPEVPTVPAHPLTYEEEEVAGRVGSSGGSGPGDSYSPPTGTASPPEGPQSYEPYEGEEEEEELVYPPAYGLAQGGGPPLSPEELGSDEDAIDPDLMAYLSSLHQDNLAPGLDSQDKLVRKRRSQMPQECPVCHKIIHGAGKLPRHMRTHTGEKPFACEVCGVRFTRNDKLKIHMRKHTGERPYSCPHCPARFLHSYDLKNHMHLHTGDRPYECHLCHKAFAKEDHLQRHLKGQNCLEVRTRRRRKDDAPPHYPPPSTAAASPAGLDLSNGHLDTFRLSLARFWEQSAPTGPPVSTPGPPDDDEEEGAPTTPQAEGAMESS

DLX3 = DLX3 (Homo sapiens, UniProt O60479); experiment: as above; conditions: protein: extract; label: 5' biotin (strand 1)
Sequence of DLX3 (O60479 whole entry): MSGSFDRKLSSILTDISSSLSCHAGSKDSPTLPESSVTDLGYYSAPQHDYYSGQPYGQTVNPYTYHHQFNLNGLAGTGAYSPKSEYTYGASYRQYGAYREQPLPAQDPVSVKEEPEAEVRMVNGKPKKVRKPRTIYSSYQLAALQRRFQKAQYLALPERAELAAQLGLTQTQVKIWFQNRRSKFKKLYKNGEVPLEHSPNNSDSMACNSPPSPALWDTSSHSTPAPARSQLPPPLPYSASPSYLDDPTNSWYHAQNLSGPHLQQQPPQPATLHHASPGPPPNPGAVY

ZNF787 = ZNF787 (Homo sapiens, UniProt Q6DD87); experiment: as above; conditions: protein: extract; label: 5' biotin (strand 1)
ZFHX3 = ZFHX3 (Homo sapiens, UniProt Q15911); experiment: as above; conditions: protein: extract; label: 5' biotin (strand 1)
GATA2 = GATA2 (Homo sapiens, UniProt P23769); experiment: as above; conditions: protein: extract; label: 5' biotin (strand 1)
Sequence of GATA2 (P23769 whole entry): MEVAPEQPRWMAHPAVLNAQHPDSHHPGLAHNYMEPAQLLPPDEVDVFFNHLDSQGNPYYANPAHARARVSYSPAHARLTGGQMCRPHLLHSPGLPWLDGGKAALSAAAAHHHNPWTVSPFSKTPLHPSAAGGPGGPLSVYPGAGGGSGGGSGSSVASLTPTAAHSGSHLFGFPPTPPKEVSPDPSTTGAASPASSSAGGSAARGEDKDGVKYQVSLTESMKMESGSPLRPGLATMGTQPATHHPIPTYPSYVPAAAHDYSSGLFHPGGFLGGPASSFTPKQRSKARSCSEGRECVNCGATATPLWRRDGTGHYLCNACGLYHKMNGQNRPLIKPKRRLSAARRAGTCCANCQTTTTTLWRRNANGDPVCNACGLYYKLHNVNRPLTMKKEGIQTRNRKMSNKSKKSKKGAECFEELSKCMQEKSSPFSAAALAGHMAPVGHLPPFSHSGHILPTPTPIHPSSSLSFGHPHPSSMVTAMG

SP1 = SP1 (Homo sapiens, UniProt P08047); experiment: as above; conditions: protein: extract; label: 5' biotin (strand 1)
Sequence of SP1 (P08047 whole entry): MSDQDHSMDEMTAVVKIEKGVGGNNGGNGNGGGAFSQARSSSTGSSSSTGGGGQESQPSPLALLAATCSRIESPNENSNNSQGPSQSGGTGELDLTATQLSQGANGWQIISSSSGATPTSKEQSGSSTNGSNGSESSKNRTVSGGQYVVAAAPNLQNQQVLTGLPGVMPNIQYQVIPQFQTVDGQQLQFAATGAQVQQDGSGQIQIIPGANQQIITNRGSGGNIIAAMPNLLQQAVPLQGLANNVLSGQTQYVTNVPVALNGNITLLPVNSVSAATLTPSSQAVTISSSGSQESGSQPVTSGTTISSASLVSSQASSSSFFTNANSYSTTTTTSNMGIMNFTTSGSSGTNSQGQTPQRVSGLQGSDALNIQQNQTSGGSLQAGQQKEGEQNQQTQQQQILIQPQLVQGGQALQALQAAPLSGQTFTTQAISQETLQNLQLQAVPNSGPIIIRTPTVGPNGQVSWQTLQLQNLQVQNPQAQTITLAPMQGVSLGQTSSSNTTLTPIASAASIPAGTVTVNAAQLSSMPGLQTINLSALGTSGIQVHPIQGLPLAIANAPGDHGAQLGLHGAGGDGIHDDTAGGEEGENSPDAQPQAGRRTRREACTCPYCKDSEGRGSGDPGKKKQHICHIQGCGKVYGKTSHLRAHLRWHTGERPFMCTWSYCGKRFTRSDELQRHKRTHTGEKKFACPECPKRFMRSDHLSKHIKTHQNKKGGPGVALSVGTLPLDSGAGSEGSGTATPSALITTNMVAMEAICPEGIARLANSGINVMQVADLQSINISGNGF

KLF16 = KLF16 (Homo sapiens, UniProt Q9BXK1); experiment: as above; conditions: protein: extract; label: 5' biotin (strand 1)
Sequence of KLF16 (Q9BXK1 whole entry): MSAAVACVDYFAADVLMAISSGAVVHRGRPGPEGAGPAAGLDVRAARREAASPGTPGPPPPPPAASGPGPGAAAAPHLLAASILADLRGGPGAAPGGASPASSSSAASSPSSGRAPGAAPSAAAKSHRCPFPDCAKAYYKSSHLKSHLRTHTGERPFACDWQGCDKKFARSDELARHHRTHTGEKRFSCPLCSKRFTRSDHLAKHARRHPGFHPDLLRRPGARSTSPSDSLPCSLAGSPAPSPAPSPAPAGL

Sequence of TGIF1 (Q15583 whole entry): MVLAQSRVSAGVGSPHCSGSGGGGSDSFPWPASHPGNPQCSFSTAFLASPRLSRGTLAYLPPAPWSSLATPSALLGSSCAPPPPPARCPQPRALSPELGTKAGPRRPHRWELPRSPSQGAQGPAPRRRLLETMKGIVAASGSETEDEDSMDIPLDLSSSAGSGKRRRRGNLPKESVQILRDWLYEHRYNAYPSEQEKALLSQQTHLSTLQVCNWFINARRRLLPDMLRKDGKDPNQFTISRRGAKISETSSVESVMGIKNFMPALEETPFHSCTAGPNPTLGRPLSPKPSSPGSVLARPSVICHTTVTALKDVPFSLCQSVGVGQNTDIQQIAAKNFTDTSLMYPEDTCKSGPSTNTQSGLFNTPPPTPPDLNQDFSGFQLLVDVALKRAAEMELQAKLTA

B1: AP-1 (dsDNA)
DNA 1: AGTCGGCTAGCTGACTCAGGATGTCC
DNA 2: GGACATCCTGAGTCAGCTAGCCGACT
- apparent K (half saturation) (TGIF1): 322 nM
- apparent K (half saturation) (ELF2): 205 nM
- apparent K (half saturation) (BBX): 308 nM
- apparent K (half saturation) (SIX2): 59.9 nM
- apparent K (half saturation) (RREB1): 317 nM
- apparent K (half saturation) (TFAP2A): 363 nM
- apparent K (half saturation) (VEZF1): 255 nM

Binder: TGGGGAGGGTGGGGAGGGTGGGGAAGG (structured_DNA) [mycG4 (Pu27)]
- binding result (SMARCB1-WHD): binds
- binding result (PHF10-DPF): no binding

B2: E-box (dsDNA)
DNA 1: GGAAGCAGACCACGTGGTCTGCTTCC
DNA 2: GGAAGCAGACCACGTGGTCTGCTTCC
- apparent K (half saturation) (ZBTB7A): 404 nM
- apparent K (half saturation) (ZBTB7B): 405 nM

B3: NF-Y (dsDNA)
DNA 1: ATTGACCAATCAGAGGTAGGATGAT
DNA 2: ATCATCCTACCTCTGATTGGTCAAT
- apparent K (half saturation) (DLX3): 52.9 nM
- apparent K (half saturation) (ZNF787): 394 nM
- apparent K (half saturation) (ZFHX3): 56.9 nM
- apparent K (half saturation) (GATA2): 126 nM
- apparent K (half saturation) (RREB1): 283 nM
- apparent K (half saturation) (VEZF1): 249 nM
- apparent K (half saturation) (SP1): 185 nM
- apparent K (half saturation) (KLF16): 200 nM
